The assay has as its target Nucleosomes (Nuc207) with 30 bp linker DNA at both ends. The assay is described as follows: EM 3D reconstruction of the assembled complex; ~30 μg/ml actin/Arp module with a 10-fold molar excess of Nuc207, 2 h at 4°C, 20 mM HEPES pH 8.0, 40 mM KOAc, 5 mM MgCl2, no ATP; two binding states.

Broadly, the stoichiometry N is a count of units in the complex or per binding partner.

On to “INO80 N-terminal subcomplex (N.com) (from UniProt P53115 356-691; P60010 1-375; P80428 1-489; Q12386 1-881; P35189 1-244; Q08561 1-116)”, for which the stoichiometry N came out at 1.

These data come from publication PMC6548343.
